Consider three molecules from US20160274120A1, “METHODS OF DETERMINING WHETHER THE WNT SIGNALING PATHWAY IS UPREGULATED IN A TUMOR” (ICAHN SCHOOL OF MEDICINE AT MOUNT SINAI, priority 2009, published 2016).

One data set has as its system human sarcoma cells. Description: Proliferation of sarcoma cells in vitro (1000 cells/60 mm, 10 days, crystal violet). It is filed as cell-based. To be noted: A2984, HT1080 and HCT116 cells, lentiviral shRNA. As to the method: FIGS. 16A-16F. Downregulation of CDC25A, a novel Wnt target gene, inhibits proliferation of human sarcoma cells in vitro. A. CDC25A is a direct target of Wnt signaling in sarcoma cells. Chromatin immunoprecipitation was conducted on DNA extracted from U-2 OS, a Wnt autocrine sarcoma cell line. Monoclonal antibody against β-catenin was used in immunoprecipitation. Axin 2, a known Wnt target gene, was used as a positive control. […] C. Downregulation of Wnt signaling (assayed by TCF4 reporter activity) in sarcoma cells expressing dnTCF4. Cells stably expressing TOP luciferase and a normalizer, renilla luciferase, were used in this assay. D. dnTCF expression induces growth arrest in sarcoma cells. Indicated human sarcoma cells were stably infected with dnTCF or an empty vector control and selected in puromycin for 3 days. Cells were plated at 1000 cells/60 mm
density and cultured for 10 days. […] E Knockdown of CDC25A or c-myc induces growth arrest in sarcoma cells. HCTZ 16, a human colon cancer cell line was used for comparison. Indicated cells were stably infected with either empty vector control or shRNA specific for CDC25A or c-myc and selected in puromycin and plated at 1000 cells/60 mm plate and cultured for 10 days. Cells were fixed and stained with crystal violet. F. Western blotting to show specific downregulation of CDC25A or c-myc after shRNA expression in indicated cells. […]

A further data set concerns TCF reporter activity. Description: TCF mediated luciferase reporter activity (TOP/FOP) in NSCLC cell lines. The format is cell-based, human. To be noted: around 30% of Wnt activated NSCLC lines (summary). As for the experimental part: 24 hours before infection, stable reporter cell lines expressing TOP or FOP TCF luciferase and renilla luciferase were plated in 6 well plates at I×IO^5 cells/well. The following day cells were infected with lentiviruses expressing different Wnt antagonists, selected with 2 μg/ml puromycin for 3 days, lysed and processed for luciferase reporter assay using the dual luciferase reporter Kit (Promega) according to the manufacturer's protocol. Luciferase reporter activity was calculated by dividing the ratio TOP/RL by the FOP/RL ratio. Results were normalized to the results with vector transduced cultures.
(§1) analysis, cells were co-infected with TOP or FOP firefly luciferase mixed with a lentivirus expressing renilla luciferase (RL) used to normalize for infection efficiency (1:20-1:40 ratio). To assess the effects of FRP1 and DKK1 on TCF luciferase reporter activity, stable reporter cell lines were plated in 6 well plates and infected with vector, FRP1 or DKK1 lentiviruses. Cells were selected for 3 days with puromycin, lysed and processed for dual luciferase analysis. To generate stable inducible lines, cells were infected consecutively with tetracycline trans-activator (tTa) expressing lentivirus, selected for two weeks with 5-10 μg/ml blasticidin, followed by a second infection with lentiviruses expressing inducible FRP1, DKK1, DNTCF-4 or DNTCF-4-mOrange or empty vector, and selected for 4-7 days in 2 μg/ml puromycin in the presence of 10 ng/ml doxycycline. For induction of the antagonists, cells were trypsinized, washed with PBS and plated into 10 cm plates in the presence or absence of doxycyclin. Control cells expressing tTa or empty vector were processed in the same way. All infections were performed for 16 hr in the presence of 8 μg/ml polybrene.

Another data set relates to axin2. Description: Real time PCR quantification of axin2 mRNA expression in NSCLC cells. To be noted: around 30% of Wnt activated NSCLC lines (summary). It is filed as cell-based, human. As for the experimental part: Total RNA was isolated from cells using the Trizol Reagent (Invitrogen) according to the manufacturer's protocol. Semi-quantitative RT-PCR screen was performed using One Step RT-PCR Kit (Invitrogen) according to the manufacturer's protocol. PCR products were separated on 1% agarose gel. 5 μg total RNA was reverse transcribed using Superscript II reverse transcriptase (Invitrogen). Quantitative PCR was performed using SybrGreen 2× master mix (Roche) on a MJ Opticon or Stratagene MxPro3005. 50 ng cDNA were amplified as follows: 94° C. for 15 min, 94° C. for 15 s, 60° C. for 30 s, 72° C. for 1 min. Steps 2 through 4 were repeated for 40 cycles. Each reaction was performed in duplicate, and results of 3 independent experiments were used for statistical analysis. Relative mRNA expression levels were quantified using the ΔΔC(t) method (Pfaffl, 2001). Results were normalized to those for TATA Binding Protein (TBP). Primer sequences can be found in Tables 4 and 5.

The test system of the next data set is uncomplexed β-catenin. Description: Uncomplexed β-catenin, GST-E-cadherin pull-down and immunoblot in NSCLC cells expressing Wnt antagonists. It is filed as cell-based, human. To be noted: for uncomplexed β-catenin level: H1819 NSCLC cells, stable (constitutive) expression. As to the method:
FIGS. 2A-2E. Effects of FRP1 and DKK1 inhibition on Wnt/β-catenin signaling and growth of human NSCLC cells. (A) Effects of constitutive expression of FRP1 and DKK1 on uncomplexed β-catenin in H1819 NSCLC cell line. FRP1 and DKK1 expression was determined by immunoblot analysis as described in Materials and methods. (B) Analysis of NSCLC lines for uncomplexed β-catenin using regulatable expression of HA-tagged FRP1 (upper panel) and Flag-tagged DKK1 (lower panel). NSCLC cells expressing Tet regulatable FRP1-HA or DKK1-Flag were generated as described in supplemental Materials and methods. Expression of FRP1-HA or DKK1-Flag was induced by removal of dox from the culture medium. Cells expressing tetracycline Trans-activator (tTa) were used as control. Analysis of uncomplexed β-catenin was performed as described in Materials and methods using 1 mg total cell lysates, except for A427 cells, where 0.1 mg cell lysate was used. FRP1 and DKK1 expression was determined by immunoblot analysis as described in Materials and methods. (C) FRP1 and DKK1 mediated inhibition of TCF luciferase reporter activity in NSCLC cell lines. Luciferase reporter activity was calculated by dividing the TOP/RL ratio by the FOP/RL ratio. Results were normalized to the results with vector transduced cultures. The values represent the mean±SD from two independent experiments. (D) Real time PCR quantification of FRP1 and DKK1 effects on axin2 mRNA expression. H23, Al 146 and H1819 cells were infected with vector (VEC), FRP1-HA or DKK1-Flag lentiviruses. qRT-PCR was performed as described in supplemental Materials and methods. Relative mRNA expression levels were quantified using the ΔΔC(t) method (Pfaffl, 2001). (E) Effects of DKK1 on cell growth. A549, H23, H1819 and A427 cells were infected with lentiviruses expressing vector (VEC) or DKK1-Flag and 2×10^4 cells were plated into 60 mm tissue culture dishes. Cultures were visualized using crystal violet staining 2-3 weeks after plating. Expression of flagged tagged DKK1 was assessed by immunoblot analysis as described in Materials and methods.
GST-E-cadherin binding and immunoblot analysis was performed as previously described (Bafico et al, 1998), with the exception that for human tumor samples it was done with freshly frozen or stored tissue under cold, mild-detergent conditions. Specifically, the following protocol to assay for uncomplexed (active) β-catenin in human tumor samples was used:
as §1
On the technique in general: Immunoblotting shows a protein as a band on a membrane.

A further data set deals with NSCLC cells. Description: Cell growth analysis assay (crystal violet staining) of NSCLC cells. It is filed as cell-based, human. To be noted: stable DKK1 expression. The source says:
Transduced and marker selected cells were trypsinized, counted and 1-2×10^4 cells plated into 60 mm tissue culture dishes. At 2-3 weeks, cells were washed with PBS, fixed in 10% methanol/acetic acid solution and stained with 1% crystal violet.

In data set [1] the test system is autocrine Wnt NSCLC cells. Description: Sensitization of NSCLC cells to cisplatin (colony growth, annexin/PI FACS). The format is cell-based, human. The settings on record: H23 (autocrine Wnt) vs A549 cells, lentiviral DKK1, cisplatin. As to the method: FIGS. 13A and 13E. […] (A and B) Effects of cisplatin on growth of H23 (A) and A549 (B) cells infected with vector (VEC) or DKK1 expressing lentiviruses. 5×10^3 H23 and A549 cells expressing vector or DKK1 were plated in 60 mm plates. Cells were treated for 4 hr with 5 or 20 μM cisplatin or saline as control and colonies were visualized 2 weeks later by crystal violet staining. (C and D) Effects of cisplatin on apoptosis of H23 (C) and A549 (D) cells infected with vector (VEC) or DKK1 expressing lentiviruses and treated for 3 days with increasing concentrations of cisplatin. Adherent and floating cells were collected and processed for FACS analysis using annexin/PI. The percentage of annexin positive cells in vector or DKK1 infected cells is represented in the line graph. Results are the mean±SD of 3 independent experiments. Statistical two-way analysis of variance (ANOVA) tests with Bonferroni multiple testing corrections were performed. *−p<0.05, **−p<0.01, ***−p<0.001. […] Cell lysates were collected every 24 hr and analyzed by immunoblot. […]
For DNA content analysis, cells were trypsinized, combined with floating cells, washed with PBS, stained with propidium iodide (PI), using the CycleTEST Plus DNA reagent kit (Becton Dickinson) following the manufacturer instructions, and subjected to FACS analysis. […] Results were analyzed using Cell Quest 3.2 software (Becton Dickinson).

The mark [2] stands for this setting: H23 and A1146 tumor lines, inducible system, low expression in the presence of dox.
[3] abbreviates: around 30% of Wnt activated NSCLC lines (summary).

Turning to “CDC25A shRNA: shRNA specific for CDC25A, 5′CCAGGGAATTTCATTCCTC3′ (SEQ ID NO: 62) (CCAGGGAAATTTCATTCCTC; chemistry not fully specified)”, the proliferation entry in the data set with human sarcoma cells was “inhibited proliferation to varying degrees”.

B1: DKK1: Dickkopf-1, secreted Wnt antagonist binding co-receptor LRP6; Flag-tagged, expressed from lentiviral vector (protein, UniProt O94907 32-266, looked up)
Dickkopf-related protein 1: TLNSVLNSNAIKNLPPPLGGAAGHPGSAVSAAPGILYPGGNKYQTIDNYQPYPCAEDEECGTDEYCASPTRGGDAGVQICLACRKRRKRCMRHAMCCPGNYCKNGICVSSDQNHFRGEIEETITESFGNDHSTLDGYSRRTTLSSKMYHTKGQEGSVCLRSSDCASGLCCARHFWSKICKPVLKEGQVCTKHRRKGSHGLEIFQRCYCGEGLSCRIQKDHHQASNSSRLHTCQRH
modifications: Flag tag
notes: Flag-tagged, expressed from lentiviral vector
B1: the TCF reporter activity entry with TCF reporter activity is listed as “dramatic decrease”. Moreover, the “expression of the Wnt target gene axin2” value in the data set on axin2 was “dramatic decrease”. The “uncomplexed β-catenin levels” value is listed as “further reduced” in the data set with uncomplexed β-catenin (H23 and A1146 cells, full induction (dox removed)); “decrease” in the data set on uncomplexed β-catenin (setting [2]); “no effect” in the data set on uncomplexed β-catenin (H2347, H358 or A427 cells); “dramatic decrease” in the data set with uncomplexed β-catenin (setting [3]). Moreover, the “uncomplexed β-catenin level” value in the data set on uncomplexed β-catenin is “marked decrease”. In addition, the “cell growth / proliferation vs vector control” value in the data set with NSCLC cells (A549 (no Wnt activation) and A427 (β-catenin mutant) cells) is on record as “not associated with any detectable growth inhibition”; with NSCLC cells (H23 and H1819 tumor cells) it was “antiproliferative effects”. Further, the “sensitization to cisplatin treatment” value in data set [1] is recorded as “specifically sensitizes”.

B2: FRP1: secreted Frizzled Related Protein, Wnt antagonist inhibiting Wnt ligand-receptor interaction; HA-tagged, expressed from lentiviral vector (protein, UniProt Q8N474 32-314, looked up)
Secreted frizzled-related …: SEYDYVSFQSDIGPYQSGRFYTKPPQCVDIPADLRLCHNVGYKKMVLPNLLEHETMAEVKQQASSWVPLLNKNCHAGTQVFLCSLFAPVCLDRPIYPCRWLCEAVRDSCEPVMQFFGFYWPEMLKCDKFPEGDVCIAMTPPNATEASKPQGTTVCPPCDNELKSEAIIEHLCASEFALRMKIKEVKKENGDKKIVPKKKKPLKLGPIKKKDLKKLVLYLKNGADCPCHQLDNLSHHFLIMGRKVKSQYLLTAIHKWDKKNKEFKNFMKKMKNHECPTFQSVFK
modifications: HA tag
notes: HA-tagged, expressed from lentiviral vector
On to B2, for which, in the data set with TCF reporter activity, the TCF reporter activity entry was “dramatic decrease”. The “expression of the Wnt target gene axin2” value in the data set with axin2 is “dramatic decrease”. In addition, the “uncomplexed β-catenin levels” value was “significant reduction” with uncomplexed β-catenin (setting [2]); “no effect” in the data set with uncomplexed β-catenin (H2347, H358 or A427 cells); “dramatic decrease” in the data set on uncomplexed β-catenin (setting [3]). Further, the “uncomplexed β-catenin level” value with uncomplexed β-catenin is “marked decrease”.
